Experiments:
eIF4A1 Phe163His = eIF4A1 Phe163His (Homo sapiens, UniProt P60842 1-406, F163H); assay: fluorescence polarization; 1 mM AMP-PNP, DMSO; 20 mM HEPES-NaOH pH 7.5, 150 mM NaCl, 1 mM MgCl2, 1 mM DTT, 5% glycerol, 1% DMSO, 10 nM FAM-RNA, 0-25 uM protein (source data up to 50), 1 mM AMP-PNP or 1 mM ADP + 1 mM Na2HPO4, room temperature 30 min; Hill fit, n = 3; conditions: protein: recombinant; tags: His; single strand
eIF4A1 Phe163Gly = eIF4A1 Phe163Gly (Homo sapiens, UniProt P60842 1-406, F163G); assay: as above; conditions: protein: recombinant; tags: His; single strand
Sequence of eIF4A1 Phe163Gly (P60842 whole entry F163G): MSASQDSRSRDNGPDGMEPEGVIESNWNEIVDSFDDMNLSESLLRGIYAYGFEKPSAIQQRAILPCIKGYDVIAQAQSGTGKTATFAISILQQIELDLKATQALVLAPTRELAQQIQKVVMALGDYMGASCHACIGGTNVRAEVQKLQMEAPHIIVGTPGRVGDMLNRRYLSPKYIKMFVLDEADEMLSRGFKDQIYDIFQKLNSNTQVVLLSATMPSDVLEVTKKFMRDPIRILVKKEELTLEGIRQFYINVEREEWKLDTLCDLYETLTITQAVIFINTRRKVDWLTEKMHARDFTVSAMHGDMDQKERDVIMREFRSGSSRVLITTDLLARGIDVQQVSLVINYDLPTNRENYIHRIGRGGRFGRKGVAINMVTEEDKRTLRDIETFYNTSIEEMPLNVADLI

Sequence of eIF4A1 Phe163His (P60842 whole entry F163H): as the sequence (P60842 whole entry F163G) above, with G163H counted along it

Binder: AGAGAGAGAGAGAGAGAGAG (ssRNA) [[AG]10 polypurine RNA]
- Kd (eIF4A1 Phe163His): 16 ± 2.7 µM
- Kd (eIF4A1 Phe163Gly): 21 ± 6.7 µM

From publication PMC9977294, “A parasitic fungus employs mutated eIF4A to survive on rocaglate-synthesizing Aglaia plants”
